In patent US20090232783:

Biological target: Ferritin-H (expression plasmid pcEXV-1) (Homo sapiens) (UniProt P02794)
Assay: cell_activity
Settings: CV-1 cells, EKLF-stimulated CAT reporter

Ferritin-H (expression plasmid pcEXV-1) (Homo sapiens), sequence (P02794 2-183): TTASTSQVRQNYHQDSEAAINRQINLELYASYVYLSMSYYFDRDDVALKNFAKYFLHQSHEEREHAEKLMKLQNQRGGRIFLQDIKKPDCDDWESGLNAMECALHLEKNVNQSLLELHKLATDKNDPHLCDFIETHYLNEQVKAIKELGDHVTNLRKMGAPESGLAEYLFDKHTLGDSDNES

beta-globin -610/+20 promoter in CAT reporter
activity: 62 % repression
